Results reported in paper doi:10.1101/2024.12.31.630897.

Legend:
[1] = target: His-tagged GFP nanobody; test: BLI
[2] = target: GFP polybody (His-tagged GFP nanobody-TMS reconstituted in peptidisc); test: BLI

Kd [1]: 0.75 nM
Kd [2]: 2.72 nM
Substance: His-tagged GFP (green fluorescent protein) (from UniProt P42212 1-238) (natural protein)
